Measurements: article PMC4390882 (Life, 2015)

Columns and labels:
[1] = target: T1, MtACK (Methanosarcina thermophila acetate kinase) (Methanosarcina thermophila, UniProt P38502, N211T); test: hydroxamate assay, A540; format: biochemical; settings: saturating acetate when possible (max 1 M), MgCl2, 50 mM Tris pH 7.5, 300 mM hydroxylamine, 37 °C
T1 construct: gene ackA; full-length, N-terminal His6 tag (pET15b, pETack), expressed in E. coli BL21(DE3), HisTrap purified; tag removal not mentioned

[2] = target: T2, MtACK (Methanosarcina thermophila acetate kinase) (Methanosarcina thermophila, UniProt P38502, G239A); test: hydroxamate assay, A540; format: biochemical; settings: saturating acetate when possible (max 1 M), MgCl2, 50 mM Tris pH 7.5, 300 mM hydroxylamine, 37 °C
T2 construct: gene ackA; full-length, N-terminal His6 tag (pET15b, pETack), expressed in E. coli BL21(DE3), HisTrap purified; tag removal not mentioned
T2 sequence (P38502 whole entry G239A): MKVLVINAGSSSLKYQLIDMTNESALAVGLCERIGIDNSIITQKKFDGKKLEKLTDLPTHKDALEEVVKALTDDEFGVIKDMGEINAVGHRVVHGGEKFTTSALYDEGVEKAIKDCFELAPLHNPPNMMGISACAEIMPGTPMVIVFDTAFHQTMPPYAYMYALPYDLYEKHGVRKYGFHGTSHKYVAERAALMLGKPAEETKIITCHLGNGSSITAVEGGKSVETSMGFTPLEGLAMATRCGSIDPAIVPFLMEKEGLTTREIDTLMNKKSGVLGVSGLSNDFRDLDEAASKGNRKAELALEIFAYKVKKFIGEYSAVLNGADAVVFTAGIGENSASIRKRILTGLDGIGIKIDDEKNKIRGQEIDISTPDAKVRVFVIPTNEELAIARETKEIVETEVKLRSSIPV

[3] = target: T3, MtACK (Methanosarcina thermophila acetate kinase) (Methanosarcina thermophila, UniProt P38502, G331Q); test: hydroxamate assay, A540; format: biochemical; settings: acetate not saturating (max 1 M), MgCl2, 50 mM Tris pH 7.5, 300 mM hydroxylamine, 37 °C
T3 construct: gene ackA; full-length, N-terminal His6 tag (pET15b, pETack), expressed in E. coli BL21(DE3), HisTrap purified; tag removal not mentioned
T3 sequence (P38502 whole entry G331Q): as the sequence (P38502 whole entry G239A) above, with A239G, G331Q counted along it

[4] = target: T4, MtACK (Methanosarcina thermophila acetate kinase) (Methanosarcina thermophila, UniProt P38502, N211S); test: hydroxamate assay, A540; format: biochemical; settings: saturating acetate when possible (max 1 M), MgCl2, 50 mM Tris pH 7.5, 300 mM hydroxylamine, 37 °C
T4 construct: gene ackA; full-length, N-terminal His6 tag (pET15b, pETack), expressed in E. coli BL21(DE3), HisTrap purified; tag removal not mentioned
T4 sequence (P38502 whole entry N211S): as the sequence (P38502 whole entry G239A) above, with N211S, A239G counted along it

[5] = target: T5, MtACK (Methanosarcina thermophila acetate kinase) (Methanosarcina thermophila, UniProt P38502, G239S); test: hydroxamate assay, A540; format: biochemical; settings: saturating acetate when possible (max 1 M), MgCl2, 50 mM Tris pH 7.5, 300 mM hydroxylamine, 37 °C
T5 construct: gene ackA; full-length, N-terminal His6 tag (pET15b, pETack), expressed in E. coli BL21(DE3), HisTrap purified; tag removal not mentioned
T5 sequence (P38502 whole entry G239S): as the sequence (P38502 whole entry G239A) above, with A239S counted along it

[6] = target: T6, MtACK (Methanosarcina thermophila acetate kinase) (Methanosarcina thermophila, UniProt P38502); test: hydroxamate assay, A540; format: biochemical; settings: saturating acetate when possible (max 1 M), MgCl2, 50 mM Tris pH 7.5, 300 mM hydroxylamine, 37 °C
T6 construct: gene ackA; full-length, N-terminal His6 tag (pET15b, pETack), expressed in E. coli BL21(DE3), HisTrap purified; tag removal not mentioned

[7] = target: T7, MtACK (Methanosarcina thermophila acetate kinase) (Methanosarcina thermophila, UniProt P38502, N211A); test: hydroxamate assay, A540; format: biochemical; settings: saturating acetate when possible (max 1 M), MgCl2, 50 mM Tris pH 7.5, 300 mM hydroxylamine, 37 °C
T7 construct: gene ackA; full-length, N-terminal His6 tag (pET15b, pETack), expressed in E. coli BL21(DE3), HisTrap purified; tag removal not mentioned
T7 sequence (P38502 whole entry N211A): as the sequence (P38502 whole entry G239A) above, with N211A, A239G counted along it

[8] = target: T8, MtACK (Methanosarcina thermophila acetate kinase) (Methanosarcina thermophila, UniProt P38502, G331A); test: hydroxamate assay, A540; format: biochemical; settings: saturating acetate when possible (max 1 M), MgCl2, 50 mM Tris pH 7.5, 300 mM hydroxylamine, 37 °C
T8 construct: gene ackA; full-length, N-terminal His6 tag (pET15b, pETack), expressed in E. coli BL21(DE3), HisTrap purified; tag removal not mentioned

hydroxamate assay, A540 [9] = substrate: Nc1ccn([C@@H]2O[C@H](COP(=O)(O)OP(=O)(O)OP(=O)(O)O)[C@@H](O)[C@H]2O)c(=O)n1; test: hydroxamate assay, A540; format: biochemical, Methanosarcina thermophila; settings: saturating acetate when possible (max 1 M), MgCl2, 50 mM Tris pH 7.5, 300 mM hydroxylamine, 37 °C
hydroxamate assay, A540 [10] = substrate: Nc1nc2c(ncn2[C@@H]2O[C@H](COP(=O)(O)OP(=O)(O)OP(=O)(O)O)[C@@H](O)[C@H]2O)c(=O)[nH]1; test: hydroxamate assay, A540; format: biochemical, Methanosarcina thermophila; settings: saturating acetate when possible (max 1 M), MgCl2, 50 mM Tris pH 7.5, 300 mM hydroxylamine, 37 °C
purified protein = substrate: CC(=O)O; test: purified protein; settings: ATP constant at optimal concentration, MgCl2, 50 mM Tris pH 7.5, 300 mM hydroxylamine, 37 °C
hydroxamate assay, A540 [11] = substrate: O=c1ccn([C@@H]2O[C@H](COP(=O)(O)OP(=O)(O)OP(=O)(O)O)[C@@H](O)[C@H]2O)c(=O)[nH]1; test: hydroxamate assay, A540; format: biochemical, Methanosarcina thermophila; settings: saturating acetate when possible (max 1 M), MgCl2, 50 mM Tris pH 7.5, 300 mM hydroxylamine, 37 °C
hydroxamate assay, A540 [12] = substrate: Cc1cn([C@H]2C[C@H](O)[C@@H](COP(=O)(O)OP(=O)(O)OP(=O)(O)O)O2)c(=O)[nH]c1=O; test: hydroxamate assay, A540; format: biochemical, Methanosarcina thermophila; settings: saturating acetate when possible (max 1 M), MgCl2, 50 mM Tris pH 7.5, 300 mM hydroxylamine, 37 °C
hydroxamate assay, A540 [13] = substrate: O=P(O)(O)OP(=O)(O)OP(=O)(O)OC[C@H]1O[C@@H](n2cnc3c(O)ncnc32)[C@H](O)[C@@H]1O; test: hydroxamate assay, A540; format: biochemical, Methanosarcina thermophila; settings: saturating acetate when possible (max 1 M), MgCl2, 50 mM Tris pH 7.5, 300 mM hydroxylamine, 37 °C

T1 sequence (P38502 whole entry N211T): as the sequence (P38502 whole entry G239A) above, with N211T, A239G counted along it

Molecule: Nc1ncnc2c1ncn2[C@@H]1O[C@H](COP(=O)(O)OP(=O)(O)OP(=O)(O)O)[C@@H](O)[C@H]1O [ATP]
- Km [1]: 7.1 ± 0.3 mM
- Km [2]: 1.7 ± 0.1 mM
- Km [3]: 18.4 ± 0.6 mM
- Km [4]: 6.8 ± 0.6 mM
- Km [5]: 1.8 ± 0.1 mM
- Km [6]: 4 ± 0.3 mM
- Km [7]: 5.9 ± 0.5 mM
- Km [8]: 10.2 ± 0.4 mM

B1: MtACK (Methanosarcina thermophila acetate kinase) (Methanosarcina thermophila; G331A) (protein)
chain: MKVLVINAGSSSLKYQLIDMTNESALAVGLCERIGIDNSIITQKKFDGKKLEKLTDLPTHKDALEEVVKALTDDEFGVIKDMGEINAVGHRVVHGGEKFTTSALYDEGVEKAIKDCFELAPLHNPPNMMGISACAEIMPGTPMVIVFDTAFHQTMPPYAYMYALPYDLYEKHGVRKYGFHGTSHKYVAERAALMLGKPAEETKIITCHLGNGSSITAVEGGKSVETSMGFTPLEGLAMGTRCGSIDPAIVPFLMEKEGLTTREIDTLMNKKSGVLGVSGLSNDFRDLDEAASKGNRKAELALEIFAYKVKKFIGEYSAVLNGADAVVFTAAIGENSASIRKRILTGLDGIGIKIDDEKNKIRGQEIDISTPDAKVRVFVIPTNEELAIARETKEIVETEVKLRSSIPV
notes: full-length, N-terminal His6 tag (pET15b, pETack), expressed in E. coli BL21(DE3), HisTrap purified; tag removal not mentioned
- Km (hydroxamate assay, A540 [9]): 15.7 ± 1.6 mM
- kcat (hydroxamate assay, A540 [9]): 17 ± 0.8 s⁻¹
- kcat/Km (hydroxamate assay, A540 [9]): 1100 ± 70 M⁻¹ s⁻¹
- Km (hydroxamate assay, A540 [10]): 5.3 ± 0.2 mM
- kcat (hydroxamate assay, A540 [10]): 67 ± 1.0 s⁻¹
- kcat/Km (hydroxamate assay, A540 [10]): 12600 ± 400 M⁻¹ s⁻¹

B2: MtACK (Methanosarcina thermophila acetate kinase) (Methanosarcina thermophila) (protein)
chain: MKVLVINAGSSSLKYQLIDMTNESALAVGLCERIGIDNSIITQKKFDGKKLEKLTDLPTHKDALEEVVKALTDDEFGVIKDMGEINAVGHRVVHGGEKFTTSALYDEGVEKAIKDCFELAPLHNPPNMMGISACAEIMPGTPMVIVFDTAFHQTMPPYAYMYALPYDLYEKHGVRKYGFHGTSHKYVAERAALMLGKPAEETKIITCHLGNGSSITAVEGGKSVETSMGFTPLEGLAMGTRCGSIDPAIVPFLMEKEGLTTREIDTLMNKKSGVLGVSGLSNDFRDLDEAASKGNRKAELALEIFAYKVKKFIGEYSAVLNGADAVVFTAGIGENSASIRKRILTGLDGIGIKIDDEKNKIRGQEIDISTPDAKVRVFVIPTNEELAIARETKEIVETEVKLRSSIPV
notes: as for B1
- Km (purified protein): 14.3 ± 0.5 mM
- Km (hydroxamate assay, A540 [11]): 2.7 ± 0.3 mM
- kcat (hydroxamate assay, A540 [11]): 415 ± 19 s⁻¹
- kcat/Km (hydroxamate assay, A540 [11]): 152000 ± 7000 M⁻¹ s⁻¹
- Km (hydroxamate assay, A540 [9]): 3.2 ± 0.4 mM
- kcat (hydroxamate assay, A540 [9]): 460 ± 28 s⁻¹
- kcat/Km (hydroxamate assay, A540 [9]): 148000 ± 13000 M⁻¹ s⁻¹
- Km (hydroxamate assay, A540 [10]): 7.2 ± 0.9 mM
- kcat (hydroxamate assay, A540 [10]): 571 ± 22 s⁻¹
- kcat/Km (hydroxamate assay, A540 [10]): 80000 ± 7000 M⁻¹ s⁻¹
- Km (hydroxamate assay, A540 [12]): 2.7 ± 0.1 mM
- kcat (hydroxamate assay, A540 [12]): 540 ± 9 s⁻¹
- kcat/Km (hydroxamate assay, A540 [12]): 202000 ± 2000 M⁻¹ s⁻¹
- Km (hydroxamate assay, A540 [13]): 4.7 ± 0.2 mM
- kcat (hydroxamate assay, A540 [13]): 742 ± 10 s⁻¹
- kcat/Km (hydroxamate assay, A540 [13]): 158000 ± 5000 M⁻¹ s⁻¹
